Assay results taken from PMC9860306.

How the values were obtained:
[1] = target: rituximab, galactosylated afucosylated (G2) glycoform (human); assay: SPR; KD1
[2] = target: rituximab, galactosylated fucosylated (G2F) glycoform (human); assay: SPR; KD1
[3] = target: rituximab, galactosylated afucosylated (G2) glycoform (human); assay: SPR; KD2 (second site)
[4] = target: rituximab, galactosylated fucosylated (G2F) glycoform (human); assay: SPR; KD2 (second site)

Sequence of rituximab, galactosylated afucosylated (G2) glycoform (human) (main, as listed by the source, chain 1 of 2): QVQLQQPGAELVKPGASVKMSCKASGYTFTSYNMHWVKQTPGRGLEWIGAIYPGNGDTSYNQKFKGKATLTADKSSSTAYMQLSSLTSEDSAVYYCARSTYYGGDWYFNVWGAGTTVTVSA
Sequence of rituximab, galactosylated afucosylated (G2) glycoform (human) (partner, as listed by the source, chain 2 of 2): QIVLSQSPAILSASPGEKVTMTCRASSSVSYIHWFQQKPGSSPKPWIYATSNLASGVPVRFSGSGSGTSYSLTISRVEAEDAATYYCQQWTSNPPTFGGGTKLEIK
Sequence of rituximab, galactosylated fucosylated (G2F) glycoform (human) (main, as listed by the source, chain 1 of 2): as the sequence (main, as listed by the source, chain 1 of 2) above
Sequence of rituximab, galactosylated fucosylated (G2F) glycoform (human) (partner, as listed by the source, chain 2 of 2): as the sequence (partner, as listed by the source, chain 2 of 2) above

Kd [1]: 29.9 nM
Kd [2]: 55.2 nM
Kd [3]: 2.3 nM
Kd [4]: 2.29 nM
Substance: FcγRIIIA(V) tetramer
